The chains are these.
B1: PG peptide, K2WQ10(D-Pro)GQ10AK2 (polyglutamine peptide interrupted by the beta-turn template D-ProGly) (peptide)
peptide: KKWQQQQQQQQQQPGQQQQQQQQQQAKK
HELM: PEPTIDE1{[ac].K.K.W.Q.Q.Q.Q.Q.Q.Q.Q.Q.Q.[dP].G.Q.Q.Q.Q.Q.Q.Q.Q.Q.Q.A.K.K.[am]}$$$$V2.0
SMILES: CC(=O)N[C@@H](CCCCN)C(=O)N[C@@H](CCCCN)C(=O)N[C@@H](Cc1c[nH]c2ccccc12)C(=O)N[C@@H](CCC(N)=O)C(=O)N[C@@H](CCC(N)=O)C(=O)N[C@@H](CCC(N)=O)C(=O)N[C@@H](CCC(N)=O)C(=O)N[C@@H](CCC(N)=O)C(=O)N[C@@H](CCC(N)=O)C(=O)N[C@@H](CCC(N)=O)C(=O)N[C@@H](CCC(N)=O)C(=O)N[C@@H](CCC(N)=O)C(=O)N[C@@H](CCC(N)=O)C(=O)N1CCC[C@@H]1C(=O)NCC(=O)N[C@@H](CCC(N)=O)C(=O)N[C@@H](CCC(N)=O)C(=O)N[C@@H](CCC(N)=O)C(=O)N[C@@H](CCC(N)=O)C(=O)N[C@@H](CCC(N)=O)C(=O)N[C@@H](CCC(N)=O)C(=O)N[C@@H](CCC(N)=O)C(=O)N[C@@H](CCC(N)=O)C(=O)N[C@@H](CCC(N)=O)C(=O)N[C@@H](CCC(N)=O)C(=O)N[C@@H](C)C(=O)N[C@@H](CCCCN)C(=O)N[C@@H](CCCCN)C(N)=O

This series deals with the molecule itself. Nature of the series: sedimentation assay.
In the case of Ac-KKWQQQQQQQQQQAAQQQQQQQQQQAKK-NH2 [AA peptide, K2WQ10AAQ10AK2 (polyglutamine peptide interrupted by AlaAla)], the “Kn k+^2 (nucleation-elongation fit of sedimentation data)” value stood at 0.000197 M^−2s^−2.

Ac-KKWQQQQQQQQQQQQQQQQQQQQAKK-NH2 [Q20 peptide, K2WQ20AK2 (uninterrupted polyglutamine control)]: the “Kn k+^2 (nucleation-elongation fit of sedimentation data)” value is 0.000235 M^−2s^−2.

In the case of B1, the “Kn k+^2 (nucleation-elongation fit of sedimentation data)” value was found to be 0.127 M^−2s^−2.

The record behind these values is PMC3170924 (Journal of molecular biology, 2011).
